Reference: paper PMC2174006 (The Journal of Cell Biology, 2002)
No end group written: not given here.

Molecular target: recombinant murine [32P]RIIα (murine, UniProt P12367 1-401, 32P-labelled)
Assay: peptide or protein array

Chain of recombinant murine [32P]RIIα (P12367 whole entry): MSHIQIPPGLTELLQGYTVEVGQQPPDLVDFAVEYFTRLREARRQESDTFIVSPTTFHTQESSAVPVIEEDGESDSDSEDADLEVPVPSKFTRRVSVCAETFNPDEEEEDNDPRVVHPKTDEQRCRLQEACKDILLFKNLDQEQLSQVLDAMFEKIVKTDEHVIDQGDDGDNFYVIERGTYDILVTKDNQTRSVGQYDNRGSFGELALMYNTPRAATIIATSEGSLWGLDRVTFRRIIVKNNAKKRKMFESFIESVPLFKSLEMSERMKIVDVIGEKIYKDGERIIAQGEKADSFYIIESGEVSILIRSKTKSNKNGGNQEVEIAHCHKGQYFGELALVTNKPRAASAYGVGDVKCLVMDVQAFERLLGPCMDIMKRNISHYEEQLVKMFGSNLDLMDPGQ

Ac-NINIEEAARFLVEKILVNHQ [Rab32 peptide 178–197]
binding result: binds
